From patent US20190248902A1 (published 2019)
Positions count from the first letter of the chain named.

B1: 56E3 (antibody, V domains shown)
VH: QVQLVQSGAEVKKPGASVKVSCKASGYTFNSYGFSWVRQAPGQGLEWMGWISAYNGNTKEAQKFQGRVTMTTDTSTSTAYMELRSLRADDTAVYYCARHDFWSGYYKGMDVWGQGTTVTVSS
VL: not shown
notes: hybridoma mAb
B2: 190E6 (antibody, V domains shown)
VH: QVQLVESGGGVVQPGRSLRLSCAASGFTFSSYGMHWVRQAPGKGLEWVAVIWYDGSNKNYADSVKGRFTISRDNSKNTLYLQMNSLRAEDTAVYYCARDQGVGYDGLDVWGQGTTVTVSS
VL: DIQMTQSPSSLSASVGDRVTITCRTSQGIGNYLAWFQQKPGKAPKSLLYKASSLQSGVPSKFSGSGSGTDFTLTISSLQPEDFATYYCQQYMTYPLTFGGGTKVEIK
notes: hybridoma mAb
B3: 197G3 (antibody, V domains shown)
VH: B2 VH with A23V, Y32H, Q100P, G101S, L107M
VL: DIQMTQSPSSLSASVGDRVTITCRASQGIGNHLAWFQQKPGKAPKSLIYAASSLQSGVPSKFSGSRSGTDFSLTISSLQPEDFATYYCQQYSNYPVTFGPGTKVDIK
notes: hybridoma mAb
B4: 190F12 (antibody, V domains shown)
VH: B2 VH with S30R, S31N, Y53F, K58D, N59Y, Y80S, Q100R, G101S
VL: B3 VL with N31K, H32Y, R66G, S72T, E81D, Q90R, S92D, N93T, V96F
notes: hybridoma mAb
B5: 194B7 (antibody, V domains shown)
VH: B2 VH with Q100R, G101S, V102K, L107M
VL: DIQMTQSPSSLSASVGDRVTITCRASQGISKYLAWFQQKPGKAPKSLIYGASRLQSGVPSKFSGSGSGTDFTLTISSLQPEDFATYYCQHYLNYPLTFGQGTRLEIK
notes: hybridoma mAb
B6: 192E4 (antibody, V domains shown)
VH: B2 VH with A61V, K65R, Q100R, G101S, L107M
VL: B3 VL with H32Y, A50V, A51V, K61R, R66G, S72T, Q90R, S92D, N93T, V96F
notes: hybridoma mAb
B7: 196C7 (antibody, V domains shown)
VH: B2 VH with K58E, N59H, Q100R, D105Y
VL: B2 VL with T25A, S26N, G28A, G30S, L48I, K50A, Q90H, M92L
notes: hybridoma mAb
B8: 190C11 (antibody, V domains shown)
VH: B2 VH
VL: B2 VL with A51T
notes: hybridoma mAb
B9: 197F2 (antibody, V domains shown)
VH: B2 VH
VL: B2 VL with T5I, A51T, C88F, M92I
notes: hybridoma mAb
B10: 198G3 (antibody, V domains shown)
VH: B2 VH with R19K, S31T, S56T, Y80C
VL: B2 VL with T5A, N31K, S56G
notes: hybridoma mAb
B11: 191G10 (antibody, V domains shown)
VH: B2 VH
VL: B2 VL with N31K, A51V
notes: hybridoma mAb
B12: 197E11 (antibody, V domains shown)
VH: B2 VH with S30R, S31N, Y53F, K58D, N59Y, Y80S, Q100R, G101S
VL: DIQMTQSPSSLSASVGDRVTITCRASQGINKYLSWFQQKPGKAPKSLIYAASSVQSGVPSKFSGSGSGTDFTLTISRLQPDDFATYYGQRYDTYPFTFGPGTKVDIK
notes: hybridoma mAb
B13: 192C10 (antibody, V domains shown)
VH: B2 VH with A24S, S30R, S31N, E46K, Y53F, K58D, N59Y, Y80S, Q100R, G101S
VL: B12 VL with N30G, S34A, V54L, R77S, G88C, I106F
notes: hybridoma mAb
B14: 197B6 (antibody, V domains shown)
VH: B2 VH with T78M, V93M, T115S
VL: B2 VL with T25A, N31K, L48I, K50G, D82N, M92S
notes: hybridoma mAb
B15: 191A10 (antibody, V domains shown)
VH: B2 VH with V93M, T115S
VL: B2 VL with T25A, N31K, L48I, K50A, S67Y, D82N, T85I, M92S
notes: hybridoma mAb
B16: 191E10 (antibody, V domains shown)
VH: B2 VH with V93M, T115S
VL: B2 VL with T25A, N31K, L48I, K50A, D82N, M92S
notes: hybridoma mAb
B17: 191G1 (antibody, V domains shown)
VH: B2 VH with K58E, N59H, Q100R, D105Y
VL: B2 VL with T25A, G30S, L48I, K50A, Q90H, M92L
notes: hybridoma mAb
B18: 193C7 (antibody, V domains shown)
VH: B2 VH with V93M, T115S
VL: B2 VL with T25A, N31K, L48I, K50A, M92S
notes: hybridoma mAb
B19: 190F8 (antibody, V domains shown)
VH: B2 VH with S31T
VL: B2 VL
notes: hybridoma mAb
B20: 190G11 (antibody, V domains shown)
VH: B2 VH with S31I
VL: B2 VL
notes: hybridoma mAb
B21: 192H10 (antibody, V domains shown)
VH: B2 VH with V93M, T115S
VL: B2 VL with T25A, N31K, L48I, K50A, S67Y, D82N, M92S
notes: hybridoma mAb
B22: 194C1 (antibody, V domains shown)
VH: B2 VH with K58E, N59H, D99N, Q100R, D105Y
VL: B2 VL with T25A, G30S, L48I, K50A, Q89L, Q90H, M92L
notes: hybridoma mAb
B23: 192C8 (antibody, V domains shown)
VH: B2 VH with K58E, N59H, T69M, Q100R, D105Y, L107M
VL: B2 VL with T25A, G30S, L48I, K50A, Q90H, M92L
notes: hybridoma mAb
B24: 191G12 (antibody, V domains shown)
VH: B2 VH
VL: B2 VL with M92I, T102S
notes: hybridoma mAb
B25: 190H9 (antibody, V domains shown)
VH: B2 VH with S30R, S31N, Y53F, K58D, N59Y, Y80S, Q100R, G101S
VL: B12 VL with N30G, S34A, P44L, V54L, R77S, G88C
notes: hybridoma mAb
B26: 192G6 (antibody, V domains shown)
VH: B2 VH with I51L, S56T
VL: B2 VL with Q3K
notes: hybridoma mAb
B27: 192G8 (antibody, V domains shown)
VH: B2 VH
VL: B2 VL with M92I
notes: hybridoma mAb
B28: 204G6 (antibody, V domains shown)
VH: B2 VH with A23T, Q100R, L107M
VL: B2 VL with Q3R, V19I, L48I, K50A, K61R, Q90H, M92L, T93S
notes: hybridoma mAb

Key:
[1] = target: T1, recombinant, soluble human ASGR-1 (human, UniProt P07306 62-291); experiment: Octet BLI dissociation, pH 7.4 minus calcium
T1 construct: biotinylated in the binning assay; also called soluble huASGR-1; Soluble ASGR-1 (Amgen)
T1 sequence: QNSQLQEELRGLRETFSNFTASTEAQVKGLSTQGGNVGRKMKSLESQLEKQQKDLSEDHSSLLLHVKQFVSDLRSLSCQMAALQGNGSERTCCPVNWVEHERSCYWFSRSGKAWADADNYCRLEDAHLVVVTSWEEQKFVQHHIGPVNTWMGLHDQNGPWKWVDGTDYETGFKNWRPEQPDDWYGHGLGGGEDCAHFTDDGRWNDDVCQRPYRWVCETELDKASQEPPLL
In short: (§1)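 Antibodies were captured on anti-human Fc biosensors, and soluble ASGR-1 (6 ug/ml) was associated for 2 min in Tris buffer containing 1 mM CaCl2 at pH 7.4, followed by 10 min dissociation under each test condition. The signal at the end of association was set as 100%. Percent ASGR-1 still bound after 1 min of dissociation was compared with the pH 7.4 plus calcium control, and >10% extra dissociation was scored as sensitive.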

[2] = target: T1, recombinant, soluble human ASGR-1; experiment: Octet BLI dissociation, pH 5.6 minus calcium
In short: as §1

[3] = target: T1, recombinant, soluble human ASGR-1; experiment: Octet BLI dissociation, pH 5.6 plus calcium
In short: as §1

| Binder | % Change Compared to pH 7.4 + Calcium [1] | % Change Compared to pH 7.4 + Calcium [2] | % Change Compared to pH 7.4 + Calcium [3] |
| --- | --- | --- | --- |
| B1 | 75% | 16% | 21% |
| B2 | -1% | -6% | -12% |
| B3 | 2% | -3% | -3% |
| B4 | -1% | -6% | -6% |
| B5 | 1% | -4% | -4% |
| B6 | -2% | -8% | -9% |
| B7 | -8% | -12% | -12% |
| B8 | -1% | -6% | -6% |
| B9 | 0% | -6% | -6% |
| B10 | -1% | -4% | -4% |
| B11 | 0% | -5% | -5% |
| B12 | -1% | -4% | -5% |
| B13 | -1% | -6% | -6% |
| B14 | -1% | -7% | -8% |
| B15 | 0% | -5% | -5% |
| B16 | -1% | -9% | -9% |
| B17 | -10% | -11% | -15% |
| B18 | -1% | -8% | -8% |
| B19 | -1% | -5% | -5% |
| B20 | -2% | -5% | -8% |
| B21 | 0% | -4% | -5% |
| B22 | -7% | -8% | -12% |
| B23 | -9% | -14% | -14% |
| B24 | -2% | -6% | -5% |
| B25 | -1% | -7% | -6% |
| B26 | -1% | -6% | -6% |
| B27 | -1% | -6% | -5% |
| B28 | -5% | -10% | -11% |
